Molecular target: the molecule itself
Assay: crystal structure; sitting drop, 295 K; protein 6.9 mg/ml in 25 mM HEPES, 50 mM NaCl, 0.5 mM DTT pH 7.0; reservoir 60%(v/v) Tacsimate pH 7.0; apo enzyme; 2.15 Å; two molecules (one dimer) in the asymmetric unit

B1: sucrose phosphorylase from Alteromonas mediterranea (enzyme)
chain: MGSIRNGVQLITYADRLGDGNIESLTNLLDGPLKGLFKGVHILPFYYPYDGEDAGFDPIDHTTVDERLGDWNNIKKLGESVDIMADLIVNHMSGQSEAFTDVLKKGRESEYWPLFLTKEDVFSGNDQAEIDEQIAKVFRPRPTPFFSDYEVGIETDSTETVPFWTTFTSNQIDIDVESELGKEYLSSILQSFTESNVDLIRLDAAGYAIKRAGSNCFMLEETFEFIEALSKRARTMGMQCLVEIHSHYQTQIDIAARCDSVYDFALPPLVLHTLFTKDASALAHWLSISPRNCFTVLDTHDGIGIVDVGASGDKPGLISADAINALVEQIHVNSNGESKKATGAAANNVDLYQVNCTYYDALGKDDFAYLVARAIQFFSPGIPQVYYGGLLAAHNDMELLANTNVGRDINRPYLTTAMVEDAIQKPVVKGLMQLITLRNENKAFGGAFDVTYTDNTLVLSWSNDGDAASLTVDFAAMDATINTVSNGEESTLSIGALLA
notes: sucrose phosphorylase (AmSP-WT), Alteromonas mediterranea, UniProt S5AE64_9ALTE; synthetic gene in pET-28b; also called AmSP; AmSP-WT; source: E. coli BL21(DE3), purified (Ni-NTA IMAC, size-exclusion chromatography)
- stoichiometry N: 2

Reference: article PMC12210189, “Crystal structure of the sucrose phosphorylase from Alteromonas mediterranea shows a loop transition in the active site” (Acta Crystallographica Section F: Structural Biology …, 2025)
